{
  "source": "patent CN114935649A",
  "about": "(dated 2022)",
  "binders": {"B1": {"name": "单克隆抗体7C4c (antibody, V domains shown)", "VH": "EVQLEESATELARPGASVKLSCKASGYIFSGRWQAWIKQRPGQGLEWIGQELMWQAPHILEDSPGGKATLTADKSSSTAYMQLSSLASEDSAVYYCAGSQKWTACWGLGTTLAVSS", "VL": "DIVITQRPALMAASPGEKVTITCSTGYYPINQWCSWYQQKSGISPKPWIYINHDKTNGVPARFSGSGSGTSYSLTITSMEAEDAATYYCHSVQSSSCPFGAGTKLELK"}},
  "target": "T1, HPV6和HPV11的共同抗原表位肽 (SEQ ID NO:1) (HPV6 and HPV11)",
  "T1 construct": "also called 序列1的免疫抗原肽; HPV6和HPV11高免疫原性抗原肽",
  "T1 peptide": "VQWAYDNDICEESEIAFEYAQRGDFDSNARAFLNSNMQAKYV",
  "test": "SPR (ProteOn XPR36), antigen amine-coupled to GLC chip, antibody as analyte at 18.75-600 nM",
  "data": [
    {"binder": "B1", "values": [
      {"measurement": "Kd", "result": 3.24, "unit": "nM"}
    ]}
  ]
}
